Each block holds one molecule with its values, some of them ahead of it.
Experiments:
[1] = molecular target: ATG101 co-expressed with ULK1 (human) (UniProt Q9BSB4); assay: mass photometry
His-ATG101 (human) = His-ATG101 (human) (UniProt Q9BSB4); assay: mass photometry
[2] = molecular target: phospho-mimetic ATG101 mutants S11D and S203D (human) (UniProt Q9BSB4); assay: mass photometry
[3] = molecular target: phosphorylated ATG101 (His-ATG101 phosphorylated in vitro by ULK1) (human) (UniProt Q9BSB4); assay: mass photometry
ATG101 (human) [4] = molecular target: ATG101 (human) (UniProt Q9BSB4); assay: mass photometry
ATG101 (human) [5] = molecular target: ATG101 (human) (UniProt Q9BSB4); assay: cross-linking
[6] = molecular target: phosphorylated ATG101 purified from insect cells treated with Okadaic Acid (human) (UniProt Q9BSB4); assay: mass photometry
^MBPATG13 full-length = molecular target: T1, ^MBPATG13 full-length (UniProt O75143 1-517); assay: fluorescence polarisation
T1 sequence: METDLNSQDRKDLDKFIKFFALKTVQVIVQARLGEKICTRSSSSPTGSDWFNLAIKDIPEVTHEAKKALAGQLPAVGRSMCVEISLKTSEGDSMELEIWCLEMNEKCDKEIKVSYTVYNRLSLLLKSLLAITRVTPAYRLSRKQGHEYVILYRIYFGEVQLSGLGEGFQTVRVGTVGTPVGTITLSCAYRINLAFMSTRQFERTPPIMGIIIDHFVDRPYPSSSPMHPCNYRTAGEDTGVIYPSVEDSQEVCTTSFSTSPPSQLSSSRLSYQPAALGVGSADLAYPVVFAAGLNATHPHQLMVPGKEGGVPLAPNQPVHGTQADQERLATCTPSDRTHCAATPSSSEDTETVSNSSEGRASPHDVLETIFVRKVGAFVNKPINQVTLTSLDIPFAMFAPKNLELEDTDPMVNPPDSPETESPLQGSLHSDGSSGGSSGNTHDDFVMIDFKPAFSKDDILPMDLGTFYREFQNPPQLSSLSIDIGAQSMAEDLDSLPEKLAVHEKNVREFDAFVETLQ

[7] = molecular target: ATG13-ATG101^Alexa488 (pre-formed complex) (UniProt Q9BSB4); assay: fluorescence polarisation

- stoichiometry N [1]: 2
Molecule: ATG101 co-expressed with ULK1 (from UniProt Q9BSB4 1-218) (natural protein)

- stoichiometry N (His-ATG101 (human)): 2
Molecule: His-ATG101 (from UniProt Q9BSB4 1-218) (natural protein)

- stoichiometry N [2]: 2
Molecule: phospho-mimetic ATG101 mutants S11D and S203D (from UniProt Q9BSB4 1-218) (natural protein)

- Kd [3]: 100 to 250 nM
- stoichiometry N [3]: 2
Molecule: phosphorylated ATG101 (His-ATG101 phosphorylated in vitro by ULK1) (from UniProt Q9BSB4 1-218) (natural protein)

- stoichiometry N (ATG101 (human) [4]): 2
- stoichiometry N (ATG101 (human) [5]): 2
Molecule: ATG101 (from UniProt Q9BSB4 1-218) (natural protein)

- stoichiometry N [6]: 2
Molecule: phosphorylated ATG101 purified from insect cells treated with Okadaic Acid (from UniProt Q9BSB4 1-218) (natural protein)

- kon (^MBPATG13 full-length): 14.7 M⁻¹ s⁻¹
B1: phosphorylated ATG101^Alexa488 (natural protein)
chain: MNCRSEVLEVSVEGRQVEEAMLAVLHTVLLHRSTGKFHYKKEGTYSIGTVGTQDVDCDFIDFTYVRVSSEELDRALRKVVGEFKDALRNSGGDGLGQMSLEFYQKKKSRWPFSDECIPWEVWTVKVHVVALATEQERQICREKVGEKLCEKIINIVEVMNRHEYLPKMPTQSEVDNVFDTGLRDVQPYLYKISFQITDALGTSVTTTMRRLIKDTLAL

- kon (^MBPATG13 full-length): 14.7 M⁻¹ s⁻¹
B2: ATG101^Alexa488 (natural protein)
chain: MNCRSEVLEVSVEGRQVEEAMLAVLHTVLLHRSTGKFHYKKEGTYSIGTVGTQDVDCDFIDFTYVRVSSEELDRALRKVVGEFKDALRNSGGDGLGQMSLEFYQKKKSRWPFSDECIPWEVWTVKVHVVALATEQERQICREKVGEKLCEKIINIVEVMNRHEYLPKMPTQSEVDNVFDTGLRDVQPYLYKISFQITDALGTSVTTTMRRLIKDTLAL

- kon [7]: 15000 M⁻¹ s⁻¹
B3: ^MBPATG9A (natural protein)
chain: MAQFDTEYQRLEASYSDSPPGEEDLLVHVAEGSKSPWHHIENLDLFFSRVYNLHQKNGFTCMLIGEIFELMQFLFVVAFTTFLVSCVDYDILFANKMVNHSLHPTEPVKVTLPDAFLPAQVCSARIQENGSLITILVIAGVFWIHRLIKFIYNICCYWEIHSFYLHALRIPMSALPYCTWQEVQARIVQTQKEHQICIHKRELTELDIYHRILRFQNYMVALVNKSLLPLRFRLPGLGEAVFFTRGLKYNFELILFWGPGSLFLNEWSLKAEYKRGGQRLELAQRLSNRILWIGIANFLLCPLILIWQILYAFFSYAEVLKREPGALGARCWSLYGRCYLRHFNELEHELQSRLNRGYKPASKYMNCFLSPLLTLLAKNGAFFAGSILAVLIALTIYDEDVLAVEHVLTTVTLLGVTVTVCRSFIPDQHMVFCPEQLLRVILAHIHYMPDHWQGNAHRSQTRDEFAQLFQYKAVFILEELLSPIVTPLILIFCLRPRALEIIDFFRNFTVEVVGVGDTCSFAQMDVRQHGHPQWLSAGQTEASVYQQAEDGKTELSLMHFAITNPGWQPPRESTAFLGFLKEQVQRDGAAASLAQGGLLPENALFTSIQSLQSESEPLSLIANVVAGSSCRGPPLPRDLQGSRHRAEVASALRSFSPLQPGQAPTGRAHSTMTGSGVDARTASSGSSVWEGQLQSLVLSEYASTEMSLHALYMHQLHKQQAQAEPERHVWHRRESDESGESAPDEGGEGARAPQSIPRSASYPCAAPRPGAPETTALHGGFQRRYGGITDPGTVPRVPSHFSRLPLGGWAEDGQSASRHPEPVPEEGSEDELPPQVHKV

Source: paper doi:10.1101/2025.06.27.661946 (bioRxiv, 2025)
